Target: T1, histidine tagged HMGB1 (High-Mobility-Group-Protein 1) (Homo sapiens (Human), UniProt P09429 1-215, limits assumed, labeled with the his-tag specific NT-647 dye)
T1 construct: also called high-mobility protein box 1; not shown: histidine tag
T1 sequence: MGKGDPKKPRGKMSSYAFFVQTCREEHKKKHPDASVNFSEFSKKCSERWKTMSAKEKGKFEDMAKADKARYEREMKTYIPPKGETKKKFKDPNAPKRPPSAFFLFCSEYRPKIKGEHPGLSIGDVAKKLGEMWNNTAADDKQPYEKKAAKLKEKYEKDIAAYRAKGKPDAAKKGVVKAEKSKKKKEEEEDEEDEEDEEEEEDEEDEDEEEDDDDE
Test: MST, NT-647-labelled His-tagged HMGB1, peptide titrated

ERWIH (Last five residues of HBP08 (ERWIH)) [Pentapept-2]
Kd: 200 µM

GYHYE (First five residues of HBP08 (GYHYE)) [Pentapept-1]
binding result: no binding (tested: highest peptide concentration 500 µM)

From patent publication US20220153792A1 (INSTITUTE FOR RESEARCH IN BIOMEDICINE, published 2022)
